B1: Tetratricopeptide repeat protein 4 (Homo sapiens), O95801 (parent)
chain: MEQPGQDPTSDDVMDSFLEKFQSQPYRGGFHEDQWEKEFEKVPLFMSRAPSEIDPRENPDLACLQSIIFDEERSPEEQAKTYKDEGNDYFKEKDYKKAVISYTEGLKKKCADPDLNAVLYTNRAAAQYYLGNFRSALNDVTAARKLKPCHLKAIIRGALCHLELKHFAEAVNWCDEGLQIDAKEKKLLEMRAKADKLKRIEQRDVRKANLKEKKERNQNEALLQAIKARNIRLSEAACEDEDSASEGLGELFLDGLSTENPHGARLSLDGQGRLSWPVLFLYPEYAQSDFISAFHEDSRFIDHLMVMFGETPSWDLEQKYCPDNLEVYFEDEDRAELYRVPAKSTLLQVLQHQRYFVKALTPAFLVCVGSSPFCKNFLRGRKVYQIR

Variants of B1 are the subject of one experiment. To be noted: with hs90b_human HSP90AB1, P08238.
Sequence of hs90b_human HSP90AB1, P08238 (P08238 whole entry): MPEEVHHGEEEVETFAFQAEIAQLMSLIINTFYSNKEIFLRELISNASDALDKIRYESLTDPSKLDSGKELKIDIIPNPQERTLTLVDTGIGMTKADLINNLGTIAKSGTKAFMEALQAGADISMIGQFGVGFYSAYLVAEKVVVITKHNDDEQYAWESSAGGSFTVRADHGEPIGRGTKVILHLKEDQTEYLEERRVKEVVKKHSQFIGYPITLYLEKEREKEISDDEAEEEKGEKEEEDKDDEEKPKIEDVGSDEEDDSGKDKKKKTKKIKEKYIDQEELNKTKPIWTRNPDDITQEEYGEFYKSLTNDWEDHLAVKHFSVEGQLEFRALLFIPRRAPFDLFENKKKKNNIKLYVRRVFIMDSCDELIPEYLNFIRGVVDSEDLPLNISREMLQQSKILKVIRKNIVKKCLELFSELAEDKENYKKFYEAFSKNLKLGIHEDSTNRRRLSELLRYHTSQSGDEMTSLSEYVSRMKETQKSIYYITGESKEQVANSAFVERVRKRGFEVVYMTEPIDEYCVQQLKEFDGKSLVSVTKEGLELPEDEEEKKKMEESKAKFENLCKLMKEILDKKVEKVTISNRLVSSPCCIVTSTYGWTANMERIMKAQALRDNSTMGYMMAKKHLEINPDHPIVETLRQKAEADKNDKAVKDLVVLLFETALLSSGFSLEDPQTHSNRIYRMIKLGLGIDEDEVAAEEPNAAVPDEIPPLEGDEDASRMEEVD
As to MEQPGQDPTSDDVMDSFLEKFQSQPYRGGFHEDQWEKEFEKVPLFMSRAPSEIDPRENPDLACLQSIIFDEERSPEEQAKTYKDEGNDYFKEKDYKKAVISYTEGLKKKCADPDLNAVLYTNRAAAQYYLGNFRSALNDVTAARKLKPCHLKAIIEGALCHLELKHFAEAVNWCDEGLQIDAKEKKLLEMRAKADKLKRIEQRDVRKANLKEKKERNQNEALLQAIKARNIRLSEAACEDEDSASEGLGELFLDGLSTENPHGARLSLDGQGRLSWPVLFLYPEYAQSDFISAFHEDSRFIDHLMVMFGETPSWDLEQKYCPDNLEVYFEDEDRAELYRVPAKSTLLQVLQHQRYFVKALTPAFLVCVGSSPFCKNFLRGRKVYQIR [R156E], the “effect of a mutation on the interaction” value is reported as “disrupting interaction strength”.
Take MEQPGQDPTSDDVMDSFLEKFQSQPYRGGFHEDQWEKEFEKVPLFMSRAPSEIDPRENPDLACLQSIIFDEERSPEEQAKTYKDEGNDYFKEKDYKKAVISYTEGLKKKCADPDLNAVLYTNRAAAQYYLGNFRSALNDVTAARKLKPCHLEAIIEGALCHLELKHFAEAVNWCDEGLQIDAKEKKLLEMRAKADKLKRIEQRDVRKANLKEKKERNQNEALLQAIKARNIRLSEAACEDEDSASEGLGELFLDGLSTENPHGARLSLDGQGRLSWPVLFLYPEYAQSDFISAFHEDSRFIDHLMVMFGETPSWDLEQKYCPDNLEVYFEDEDRAELYRVPAKSTLLQVLQHQRYFVKALTPAFLVCVGSSPFCKNFLRGRKVYQIR [K152E;R156E]: the “effect of a mutation on the interaction” value is listed as “disrupting interaction strength”.
For the variant MEQPGQDPTSDDVMDSFLEKFQSQPYRGGFHEDQWEKEFEKVPLFMSRAPSEIDPRENPDLACLQSIIFDEERSPEEQAKTYKDEGNDYFKEKDYKKAVISYTEGLKKKCADPDLNAVLYTNRAAAQYYLGNFRSALNDVTAARKLKPCHLEAIIRGALCHLELKHFAEAVNWCDEGLQIDAKEKKLLEMRAKADKLKRIEQRDVRKANLKEKKERNQNEALLQAIKARNIRLSEAACEDEDSASEGLGELFLDGLSTENPHGARLSLDGQGRLSWPVLFLYPEYAQSDFISAFHEDSRFIDHLMVMFGETPSWDLEQKYCPDNLEVYFEDEDRAELYRVPAKSTLLQVLQHQRYFVKALTPAFLVCVGSSPFCKNFLRGRKVYQIR [K152E], the “effect of a mutation on the interaction” value is on record as “disrupting interaction strength”.

In another experiment the parent is B1. To be noted: with hs90b_human HSP90AB1, P08238. This is another data set of the same source.
As for MEQPGQDPTSDDVMDSFLEKFQSQPYRGGFHEDQWEKEFEKDPLFMSRAPSEIDPRENPDLACLQSIIFDEERSPEEQAKTYKDEGNDYFKEKDYKKAVISYTEGLKKKCADPDLNAVLYTNRAAAQYYLGNFRSALNDVTAARKLKPCHLKAIIRGALCHLELKHFAEAVNWCDEGLQIDAKEKKLLEMRAKADKLKRIEQRDVRKANLKEKKERNQNEALLQAIKARNIRLSEAACEDEDSASEGLGELFLDGLSTENPHGARLSLDGQGRLSWPVLFLYPEYAQSDFISAFHEDSRFIDHLMVMFGETPSWDLEQKYCPDNLEVYFEDEDRAELYRVPAKSTLLQVLQHQRYFVKALTPAFLVCVGSSPFCKNFLRGRKVYQIR [V42D], the “effect of a mutation on the interaction” value is on record as “with no effect”.
Regarding MEQPGQDPTSDDVMDSFLEKFQSQPYRGGFHEDQWEKEFEKVPLFMSRAPSEIDPRENPDLACLQSIIFDEERSPEAQAKTYKDEGNDYFKEKDYKKAVISYTEGLKKKCADPDLNAVLYTNRAAAQYYLGNFRSALNDVTAARKLKPCHLKAIIRGALCHLELKHFAEAVNWCDEGLQIDAKEKKLLEMRAKADKLKRIEQRDVRKANLKEKKERNQNEALLQAIKARNIRLSEAACEDEDSASEGLGELFLDGLSTENPHGARLSLDGQGRLSWPVLFLYPEYAQSDFISAFHEDSRFIDHLMVMFGETPSWDLEQKYCPDNLEVYFEDEDRAELYRVPAKSTLLQVLQHQRYFVKALTPAFLVCVGSSPFCKNFLRGRKVYQIR [E77A], the “effect of a mutation on the interaction” value is given as “decreasing interaction strength”.

Variants of B1 are the subject of the next experiment. To be noted: with hsp7c_human HSPA8, P11142.
Sequence of hsp7c_human HSPA8, P11142 (P11142 whole entry, looked up): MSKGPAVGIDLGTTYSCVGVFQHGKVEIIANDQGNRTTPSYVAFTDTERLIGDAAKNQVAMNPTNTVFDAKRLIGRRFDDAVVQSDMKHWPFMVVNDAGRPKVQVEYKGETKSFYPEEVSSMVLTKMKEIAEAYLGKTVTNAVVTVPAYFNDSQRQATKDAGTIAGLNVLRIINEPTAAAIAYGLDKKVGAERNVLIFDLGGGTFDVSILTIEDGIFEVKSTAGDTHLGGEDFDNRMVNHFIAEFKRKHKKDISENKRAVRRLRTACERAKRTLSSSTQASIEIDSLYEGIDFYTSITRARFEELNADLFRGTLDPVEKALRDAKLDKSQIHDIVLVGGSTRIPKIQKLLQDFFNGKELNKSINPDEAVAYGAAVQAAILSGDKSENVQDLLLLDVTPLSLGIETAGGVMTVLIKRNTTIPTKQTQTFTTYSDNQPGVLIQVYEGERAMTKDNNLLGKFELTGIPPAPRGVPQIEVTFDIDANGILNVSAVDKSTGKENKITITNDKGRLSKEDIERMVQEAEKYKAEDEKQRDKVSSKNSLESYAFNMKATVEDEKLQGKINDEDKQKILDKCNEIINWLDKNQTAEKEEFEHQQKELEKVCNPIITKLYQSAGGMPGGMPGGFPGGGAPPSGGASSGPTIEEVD
Consider MEQPGQDPTSDDVMDSFLEKFQSQPYRGGFHEDQWEKEFEKDPLFMSRAPSEIDPRENPDLACLQSIIFDEERSPEEQAKTYKDEGNDYFKEKDYKKAVISYTEGLKKKCADPDLNAVLYTNRAAAQYYLGNFRSALNDVTAARKLKPCHLKAIIRGALCHLELKHFAEAVNWCDEGLQIDAKEKKLLEMRAKADKLKRIEQRDVRKANLKEKKERNQNEALLQAIKARNIRLSEAACEDEDSASEGLGELFLDGLSTENPHGARLSLDGQGRLSWPVLFLYPEYAQSDFISAFHEDSRFIDHLMVMFGETPSWDLEQKYCPDNLEVYFEDEDRAELYRVPAKSTLLQVLQHQRYFVKALTPAFLVCVGSSPFCKNFLRGRKVYQIR [V42D], for which the “effect of a mutation on the interaction” value was “decreasing interaction strength”.
Same read-out and setting: the result for MEQPGQDPTSDDVMDSFLEKFQSQPYRGGFHEDQWEKEFEKVPLFMSRAPSEIDPRENPDLACLQSIIFDEERSPEAQAKTYKDEGNDYFKEKDYKKAVISYTEGLKKKCADPDLNAVLYTNRAAAQYYLGNFRSALNDVTAARKLKPCHLKAIIRGALCHLELKHFAEAVNWCDEGLQIDAKEKKLLEMRAKADKLKRIEQRDVRKANLKEKKERNQNEALLQAIKARNIRLSEAACEDEDSASEGLGELFLDGLSTENPHGARLSLDGQGRLSWPVLFLYPEYAQSDFISAFHEDSRFIDHLMVMFGETPSWDLEQKYCPDNLEVYFEDEDRAELYRVPAKSTLLQVLQHQRYFVKALTPAFLVCVGSSPFCKNFLRGRKVYQIR [E77A] reads “with no effect”.

(Values after IntAct's records for PubMed 18320024.)
